{"source": "patent US6699677", "about": "(CHEMOCENTRYX, dated 2004)", "binders": {"B1": {"name": "TARC-FRAC (stalkokine with a fractalkine stalk and a TARC ligand domain) (ligand, human, not shown: small tags and cut ends)", "chain": "ARGTNVGRECCLEYFKGAIPLRKLKTWYQTSEDCSRDAIVFVTVQGRAICSDPNNKRVKNAVKYLQSLERSEFGGTFEKQIGEVKPRTTPAAGGMDESVVLEPEATGESSSLEPTPSSQEAQRALGTSPELPTGVTGSSGTRLPPTPKAQDGGPVGTELFRVPPVSTAATWQSSAPHQPGPSLWAEAKTSEAPSTQDPSTQASTASSPAPEENAPSEGQRVWGQGQSPRPENSLEREEMGPVPAHTDAFQDWGPGSMAHVSVVPVSSEGTPSREPVASGSWTPKAEEPIHATMDPQRLGVLITPVPDAQA", "notes": "mature; Used as cell supernatant, soluble (displacement, calcium flux) or immobilized through anti-His antibody (adhesion); also called TARC-SK; TARC-Stalkokine"}, "B2": {"name": "SLC-FRAC (SLC stalkokine) (ligand, human, not shown: small tags and cut ends)", "chain": "SDGGAQDCCLKYSQRKIPAKVVRSYRKQEPSLGCSIPAILFLPRKRSQAELCADPKELWVQQLMQHLDKTPSPQKPAQGCRKDRGASKTGKKGKGSKGCKRTERSQTPKGPEFGGTFEKQIGEVKPRTTPAAGGMDESVVLEPEATGESSSLEPTPSSQEAQRALGTSPELPTGVTGSSGTRLPPTPKAQDGGPVGTELFRVPPVSTAATWQSSAPHQPGPSLWAEAKTSEAPSTQDPSTQASTASSPAPEENAPSEGQRVWGQGQSPRPENSLEREEMGPVPAHTDAFQDWGPGSMAHVSVVPVSSEGTPSREPVASGSWTPKAEEPIHATMDPQRLGVLITPVPDAQA", "notes": "mature; also called SLC (stalkokine form); 6Ckine"}, "B3": {"name": "TECK, soluble recombinant native form chemokine (ligand, UniProt O15444 24-150, looked up)", "chain": "QGVFEDCCLAYHYPIGWAVLRRAWTYRIQEVSGSCNLPAAIFYLPKRHRKVCGNPKSREVQRAMKLLDARNKVFAKLHHNTQTFQAGPHAVKKLSSGNSKLSSSKFSNPISSSKRNVSLLISANSGL", "notes": "mature; Tracer was 125I-labeled TECK from Amersham; also called soluble TECK; cold TECK"}, "B4": {"name": "I309-FRAC (I309 stalkokine) (ligand, human, not shown: small tags and cut ends)", "chain": "KSMQVPFSRCCFSFAEQEIPLRAILCYRNTSSICSNEGLIFKLKRGKEACALDTVGWVQRHRKMLRHCPSKRKEFGGTFEKQIGEVKPRTTPAAGGMDESVVLEPEATGESSSLEPTPSSQEAQRALGTSPELPTGVTGSSGTRLPPTPKAQDGGPVGTELFRVPPVSTAATWQSSAPHQPGPSLWAEAKTSEAPSTQDPSTQASTASSPAPEENAPSEGQRVWGQGQSPRPENSLEREEMGPVPAHTDAFQDWGPGSMAHVSVVPVSSEGTPSREPVASGSWTPKAEEPIHATMDPQRLGVLITPVPDAQA", "notes": "mature; also called I309 (stalkokine form); 1309-FRAC"}, "B5": {"name": "TARC, soluble chemokine (ligand, human, UniProt Q92583 24-94, looked up)", "chain": "ARGTNVGRECCLEYFKGAIPLRKLKTWYQTSEDCSRDAIVFVTVQGRAICSDPNNKRVKNAVKYLQSLERS", "notes": "Also used radiolabeled as tracer on CEM cells; also called soluble TARC; radiolabeled TARC"}, "B6": {"name": "ELC, soluble recombinant native form chemokine (ligand, UniProt Q99731 22-98, looked up)", "chain": "GTNDAEDCCLSVTQKPIPGYIVRNFHYLLIKDGCRVPAVVFTTLRGRQLCAPPDQPWVERIIQRLQRTSAKMKRRSS", "notes": "mature; also called soluble ELC; soluble native ELC"}, "B7": {"name": "MDC, soluble chemokine (ligand, human, UniProt O00626 25-93, looked up)", "chain": "GPYGANMEDSVCCRDYVRYRLPLRVVKHFYWTSDSCPRPGVVLLTFRDKEICADPRVPWVKMILNKLSQ", "notes": "Also used radiolabeled as tracer on CEM cells; also called MDC-CK; soluble MDC"}, "B8": {"name": "MCP3-FRAC (MCP3 stalkokine) (ligand)", "chain": "not shown", "notes": "mature; also called MCP3 (stalkokine form); MCP3 tethered ligand; not shown: polylinker residues"}, "B9": {"name": "MDC-FRAC (stalkokine with a fractalkine stalk and an MDC ligand domain) (ligand, human, not shown: small tags and cut ends)", "chain": "GPYGANMEDSVCCRDYVRYRLPLRVVKHFYWTSDSCPRPGVVLLTFRDKEICADPRVPWVKMILNKLSQEFGGTFEKQIGEVKPRTTPAAGGMDESVVLEPEATGESSSLEPTPSSQEAQRALGTSPELPTGVTGSSGTRLPPTPKAQDGGPVGTELFRVPPVSTAATWQSSAPHQPGPSLWAEAKTSEAPSTQDPSTQASTASSPAPEENAPSEGQRVWGQGQSPRPENSLEREEMGPVPAHTDAFQDWGPGSMAHVSVVPVSSEGTPSREPVASGSWTPKAEEPIHATMDPQRLGVLITPVPDAQA", "notes": "mature; Used as cell supernatant, soluble (displacement, calcium flux) or immobilized through anti-His antibody (adhesion); also called MDC-SK; MDC-Stalkokine"}, "B10": {"name": "vMIPII (ligand)", "chain": "GDTLGASWHRPDKCCLGYQKRPLPQVLLSSWYPTSQLCSKPGVIFLTKRGRQVCADKSKDWVKKLMQQLPVTAR"}, "B11": {"name": "ELC-stalkokine (ELC ligand domain, human fractalkine mucin stalk, myc epitope and poly-histidine) (ligand, not shown: small tags and cut ends)", "chain": "GTNDAEDCCLSVTQKPIPGYIVRNFHYLLIKDGCRVPAVVFTTLRGRQLCAPPDQPWVERIIQRLQRTSAKMKRRSSEFGGTFEKQIGEVKPRTTPAAGGMDESVVLEPEATGESSSLEPTPSSQEAQRALGTSPELPTGVTGSSGTRLPPTPKAQDGGPVGTELFRVPPVSTAATWQSSAPHQPGPSLWAEAKTSEAPSTQDPSTQASTASSPAPEENAPSEGQRVWGQGQSPRPENSLEREEMGPVPAHTDAFQDWGPGSMAHVSVVPVSSEGTPSREPVASGSWTPKAEEPIHATMDPQRLGVLITPVPDAQA", "notes": "mature; also called ELC-SK; ELC-FRAC"}}, "key": {"[1]": {"target": "T1, CCR4 on transfected mouse myeloma NSO cells (UniProt P51679 1-360, limits assumed)", "T1 construct": "whole, on cells; also called CCR4-NSO; CCR4 NSO cells", "T1 sequence (looked up)": "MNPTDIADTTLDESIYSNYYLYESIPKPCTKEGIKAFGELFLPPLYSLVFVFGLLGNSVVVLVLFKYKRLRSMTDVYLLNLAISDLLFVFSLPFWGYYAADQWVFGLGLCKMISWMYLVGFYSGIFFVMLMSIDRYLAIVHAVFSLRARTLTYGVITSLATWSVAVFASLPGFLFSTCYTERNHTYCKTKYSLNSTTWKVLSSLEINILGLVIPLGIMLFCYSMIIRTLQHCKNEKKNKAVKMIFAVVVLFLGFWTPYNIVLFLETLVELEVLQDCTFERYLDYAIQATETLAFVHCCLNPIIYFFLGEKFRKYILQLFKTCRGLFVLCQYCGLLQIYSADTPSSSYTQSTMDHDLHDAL", "experiment": "adhesion of receptor-expressing NSO cells to immobilized stalkokine"}, "[2]": {"target": "T2, CCR4 on CEM cells (UniProt P51679 1-360, limits assumed)", "T2 construct": "whole, on cells; also called CEM cells expressing CCR4; CEM cells that express CCR4", "T2 sequence (looked up)": "T1 sequence (looked up)", "experiment": "displacement of radiolabeled MDC or TARC from CEM cells expressing CCR4 by stalkokine supernatant"}, "[3]": {"target": "T3, CCR7 on transfected mouse myeloma NSO cells (UniProt P32248 25-378, limits assumed)", "T3 construct": "whole, on cells; also called CCR7-NSO", "T3 sequence (looked up)": "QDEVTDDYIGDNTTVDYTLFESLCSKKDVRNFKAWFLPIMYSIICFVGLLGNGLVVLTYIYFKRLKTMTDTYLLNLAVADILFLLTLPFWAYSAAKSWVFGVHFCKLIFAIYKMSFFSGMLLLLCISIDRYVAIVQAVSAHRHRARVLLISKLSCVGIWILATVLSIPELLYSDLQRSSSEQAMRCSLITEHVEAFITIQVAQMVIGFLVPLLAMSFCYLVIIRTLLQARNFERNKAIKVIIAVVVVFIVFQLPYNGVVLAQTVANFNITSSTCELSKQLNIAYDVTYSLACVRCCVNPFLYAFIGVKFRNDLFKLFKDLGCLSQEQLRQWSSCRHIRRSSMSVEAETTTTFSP", "experiment": "adhesion of receptor-expressing NSO cells to immobilized stalkokine"}, "[4]": {"target": "T4, human CCR10 (CCX CKR) with N-terminal FLAG epitope, stably expressed on HEK293 cells (human, UniProt Q9NPB9 1-350)", "T4 construct": "also called HEK293-CCR10 cells; CCR10-expressing cells", "T4 sequence": "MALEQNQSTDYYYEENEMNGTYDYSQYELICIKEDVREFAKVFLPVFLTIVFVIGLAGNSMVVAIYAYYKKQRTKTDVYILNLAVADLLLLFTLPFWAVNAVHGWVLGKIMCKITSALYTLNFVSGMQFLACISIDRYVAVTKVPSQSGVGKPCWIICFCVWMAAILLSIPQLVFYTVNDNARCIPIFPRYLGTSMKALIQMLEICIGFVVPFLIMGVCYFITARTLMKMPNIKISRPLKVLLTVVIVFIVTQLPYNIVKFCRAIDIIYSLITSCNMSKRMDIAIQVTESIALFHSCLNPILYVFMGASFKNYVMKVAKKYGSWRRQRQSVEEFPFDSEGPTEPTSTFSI", "experiment": "homologous competition, radiolabeled TECK with cold TECK on cells"}, "[5]": {"target": "T5, CCR8 on transfected mouse myeloma NSO cells (UniProt P51685 1-355, limits assumed)", "T5 construct": "whole, on cells; also called CCR8-NSO", "T5 sequence (P51685 whole entry)": "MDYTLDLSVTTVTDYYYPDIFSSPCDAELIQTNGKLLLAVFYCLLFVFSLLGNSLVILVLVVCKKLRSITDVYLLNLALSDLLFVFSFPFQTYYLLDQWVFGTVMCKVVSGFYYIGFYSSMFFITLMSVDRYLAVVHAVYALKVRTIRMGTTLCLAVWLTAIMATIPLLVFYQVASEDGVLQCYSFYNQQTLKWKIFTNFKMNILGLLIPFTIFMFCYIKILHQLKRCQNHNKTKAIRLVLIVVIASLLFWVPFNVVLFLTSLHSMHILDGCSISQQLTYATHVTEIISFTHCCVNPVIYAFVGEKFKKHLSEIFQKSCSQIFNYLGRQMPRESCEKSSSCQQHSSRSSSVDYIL", "experiment": "adhesion of receptor-expressing NSO cells to immobilized stalkokine"}, "[6]": {"target": "T1, CCR4 on transfected mouse myeloma NSO …", "experiment": "preincubation of CCR4-NSO cells with 10 ug/ml soluble chemokine, then adhesion to immobilized MDC-FRAC or TARC-FRAC"}, "[7]": {"target": "T4, human CCR10 (CCX CKR) with N-terminal …", "experiment": "homologous competition, radiolabeled ELC with increasing unlabeled ELC on cells"}, "[8]": {"target": "T2, CCR4 on CEM cells", "experiment": "displacement of radiolabeled MDC or TARC from CEM cells expressing CCR4 by soluble MDC"}, "[9]": {"target": "T6, CCR1 on transfected mouse myeloma NSO cells (UniProt P32246 1-355, limits assumed)", "T6 construct": "whole, on cells; also called CCR1-NSO", "T6 sequence (looked up)": "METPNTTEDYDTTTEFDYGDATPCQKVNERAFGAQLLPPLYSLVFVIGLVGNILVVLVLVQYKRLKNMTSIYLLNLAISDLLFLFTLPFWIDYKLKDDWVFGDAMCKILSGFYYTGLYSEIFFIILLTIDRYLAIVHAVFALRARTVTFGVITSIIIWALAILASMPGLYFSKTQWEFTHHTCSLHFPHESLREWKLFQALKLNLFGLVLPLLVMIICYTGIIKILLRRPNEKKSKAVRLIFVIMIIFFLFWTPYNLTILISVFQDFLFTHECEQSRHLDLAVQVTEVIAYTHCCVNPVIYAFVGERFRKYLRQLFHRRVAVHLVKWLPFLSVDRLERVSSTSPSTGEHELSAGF", "experiment": "adhesion of receptor-expressing NSO cells to immobilized stalkokine"}, "[10]": {"target": "T4, human CCR10 (CCX CKR) with N-terminal …", "experiment": "summary of Example 1; assay for this ligand not described"}, "[11]": {"target": "T4, human CCR10 (CCX CKR) with N-terminal …", "experiment": "adhesion of HEK293-CCR10 cells to stalkokine immobilized via anti-His antibody on chamber slides"}}}
{"binder": "B1", "values": [{"measurement": "binding result", "setting": "[1]", "value": "binds"}, {"measurement": "binding result", "setting": "[2]", "value": "binds"}]}
{"binder": "B2", "values": [{"measurement": "binding result", "setting": "[3]", "value": "no binding"}]}
{"binder": "B3", "values": [{"measurement": "binding result", "setting": "[4]", "value": "binds"}]}
{"binder": "B4", "values": [{"measurement": "binding result", "setting": "[5]", "value": "binds"}]}
{"binder": "B5", "values": [{"measurement": "binding result", "setting": "[6]", "value": "binds"}]}
{"binder": "B6", "values": [{"measurement": "binding result", "setting": "[7]", "value": "binds"}]}
{"binder": "B7", "values": [{"measurement": "binding result", "setting": "[8]", "value": "binds"}, {"measurement": "binding result", "setting": "[6]", "value": "binds"}]}
{"binder": "B8", "values": [{"measurement": "binding result", "setting": "[9]", "value": "binds"}]}
{"binder": "B9", "values": [{"measurement": "binding result", "setting": "[1]", "value": "binds"}, {"measurement": "binding result", "setting": "[2]", "value": "binds"}]}
{"binder": "B10", "values": [{"measurement": "binding result", "setting": "[10]", "value": "binds"}]}
{"binder": "B11", "values": [{"measurement": "binding result", "setting": "[3]", "value": "binds"}, {"measurement": "binding result", "setting": "[11]", "value": "binds"}]}
